The target in assay [1] is T1, HER3 (human epidermal growth factor receptor 3) (human, UniProt P21860 20-1342).
T1 construct: whole, on cells; no recombinant HER3 was used; also called ErbB3; ErbB-3
In words: FACS (MFI) on SW620 cells, low HER3 expression; anti-human IgG-Fc-PE secondary. The protocol:
(§1) The cells were incubated at 4° C. for 60 min and centrifuged at 1000 rpm for 5 min. […] The cells were washed 3 times with pre-cooled PBS (pH 7.4) and resuspended in 100 μL of PBS (pH 7.4), and then the fluorescence signals were analyzed and detected using a flow cytometer (Sartorius, iQUE). […] Data were analyzed using GraphPad Prism5.

Assay [2] concerns the target T1, HER3 (human epidermal growth factor …). As to the kind of experiment: FACS (MFI) on BT474 cells, high HER3 expression; anti-human IgG-Fc-PE secondary. Here is the method: as §1
Assay [3] shares this target. In words: FACS (MFI) on MCF-7 cells, high HER3 expression; anti-human IgG-Fc-PE secondary. Here is the method: as §1
Assay [4] shares this target. As to the kind of experiment: FACS (MFI) on MDA-MB-468 cells, medium HER3 expression; anti-human IgG-Fc-PE secondary. The protocol: as §1
For assay [5] the target is unchanged. In words: FACS (MFI) on HCC1569 cells, high HER3 expression; anti-human IgG-Fc-PE secondary. Here is the method:
as §1

Assay [6] has the same target. In words: cell-based or functional assay.
The target is the same in assay [7]. In words: FACS (MFI) on JIMT-1 cells, medium HER3 expression; anti-human IgG-Fc-PE secondary. Here is the method:
as §1

B1: Patritumab-eribulin-D2 (antibody, human IgG1, kappa, V domains shown)
VH: QVQLQQWGAGLLKPSETLSLTCAVYGGSFSGYYWSWIRQPPGKGLEWIGEINHSGSTNYNPSLKSRVTISVETSKNQFSLKLSSVTAADTAVYYCARDKWTWYFDLWGRGTLVTVSS
VL: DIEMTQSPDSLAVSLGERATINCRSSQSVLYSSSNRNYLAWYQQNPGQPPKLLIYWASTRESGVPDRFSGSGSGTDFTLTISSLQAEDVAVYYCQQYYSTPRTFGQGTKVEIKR
modifications: MC-GGFG-eribulin (compound III-1) conjugated to cysteine sulfhydryls freed by TCEP reduction of the antibody's disulfide bonds; positions not given; average DAR 2.6 per antibody
notes: also called patritumab-eribulin conjugate with a DAR of 2.6
Consider B1, for which the EC50 (as a rule, the concentration giving half of the maximal effect) turned out to be 1.89 nM in assay [1]; 3.05 nM in assay [2]; 0.855 nM in assay [3]; 1.56 nM in assay [4]; 1.42 nM in assay [5]; 1.59 nM in assay [7]. The “Endocytosis EC50 (nM), BT474 cells, pHrodo Green-labelled anti-human IgG Fc, FACS” value (“Endocytosis EC50 (nM), BT474 cells” for short) in assay [6] worked out at 1.07 nM. For the same molecule, the “Endocytosis EC50 (nM), MCF-7 cells, pHrodo Green-labelled anti-human IgG Fc, FACS” value (“Endocytosis EC50 (nM), MCF-7 cells” for short) in assay [6] came to 0.58 nM. In addition, the “Endocytosis EC50 (nM), NCI-N87 cells, pHrodo Green-labelled anti-human IgG Fc, FACS” value (“Endocytosis EC50 (nM), NCI-N87 cells” for short) in assay [6] was 4.5 nM.

B2: Patritumab-eribulin-D8 (antibody, human IgG1, kappa, V domains shown)
VH: QVQLQQWGAGLLKPSETLSLTCAVYGGSFSGYYWSWIRQPPGKGLEWIGEINHSGSTNYNPSLKSRVTISVETSKNQFSLKLSSVTAADTAVYYCARDKWTWYFDLWGRGTLVTVSS
VL: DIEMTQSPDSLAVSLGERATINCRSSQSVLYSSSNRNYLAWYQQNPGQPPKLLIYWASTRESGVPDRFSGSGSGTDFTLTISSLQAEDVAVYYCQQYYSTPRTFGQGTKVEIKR
modifications: MC-GGFG-eribulin (compound III-1) conjugated to cysteine sulfhydryls freed by TCEP reduction of the antibody's disulfide bonds; positions not given; average DAR 7.6 per antibody
notes: also called patritumab-eribulin conjugate with a DAR of 7.6
In the case of B2, the EC50 in assay [1] was found to be 1.74 nM; in assay [2], 2.85 nM; in assay [3] it was 1.02 nM; in assay [4] it was 3.31 nM; in assay [5], 1.49 nM; in assay [7], 1.73 nM. Besides, the “Endocytosis EC50 (nM), BT474 cells” value in assay [6] was determined as 0.931 nM. The “Endocytosis EC50 (nM), MCF-7 cells” value in assay [6] was 1.25 nM. For the same molecule, in assay [6], the “Endocytosis EC50 (nM), NCI-N87 cells” value amounted to 9.46 nM.

B3: Patritumab-DDDXd-D8 (antibody, human IgG1, kappa, V domains shown)
VH: QVQLQQWGAGLLKPSETLSLTCAVYGGSFSGYYWSWIRQPPGKGLEWIGEINHSGSTNYNPSLKSRVTISVETSKNQFSLKLSSVTAADTAVYYCARDKWTWYFDLWGRGTLVTVSS
VL: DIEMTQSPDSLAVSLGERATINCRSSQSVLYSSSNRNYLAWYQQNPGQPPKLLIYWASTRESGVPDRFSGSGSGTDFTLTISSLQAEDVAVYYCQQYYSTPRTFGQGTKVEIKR
modifications: MC-GGFG-DDDXd (deuterated MC-GGFG-DXd) conjugated to cysteine sulfhydryls freed by TCEP reduction of the antibody's disulfide bonds; positions not given; average DAR 7.9 per antibody
notes: also called patritumab-DDDXd conjugate with a DAR of 7.9; patritumab-DDDX-D8
Regarding B3, the EC50 in assay [1] was found to be 1.37 nM; in assay [2], 2.68 nM; in assay [3], 0.77 nM; in assay [4], 1.7 nM; in assay [5], 1.16 nM; in assay [7], 1.3 nM. Also, in assay [6], the “Endocytosis EC50 (nM), BT474 cells” value turned out to be 0.859 nM. Further, the “Endocytosis EC50 (nM), MCF-7 cells” value in assay [6] came out at 0.869 nM. Further, the “Endocytosis EC50 (nM), NCI-N87 cells” value in assay [6] amounted to 56.8 nM.

B4: Patritumab (antibody, human IgG1, kappa, V domains shown)
VH: QVQLQQWGAGLLKPSETLSLTCAVYGGSFSGYYWSWIRQPPGKGLEWIGEINHSGSTNYNPSLKSRVTISVETSKNQFSLKLSSVTAADTAVYYCARDKWTWYFDLWGRGTLVTVSS
VL: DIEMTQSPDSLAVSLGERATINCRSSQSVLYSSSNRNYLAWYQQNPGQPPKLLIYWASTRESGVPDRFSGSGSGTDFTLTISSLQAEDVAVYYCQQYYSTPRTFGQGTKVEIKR
notes: Naked antibody expressed in Expi-CHO cells and purified by Protein A; also called fully human anti-HER3 monoclonal antibody
In the case of B4, the EC50 is 1.47 nM in assay [1]; 3.02 nM in assay [2]; 0.807 nM in assay [3]; 1.3 nM in assay [4]; 1.51 nM in assay [7]. Besides, in assay [6], the “Endocytosis EC50 (nM), BT474 cells” value amounted to 0.821 nM. In addition, the “Endocytosis EC50 (nM), MCF-7 cells” value in assay [6] was 0.509 nM.

B5: Patritumab-eribulin-D4 (antibody, human IgG1, kappa, V domains shown)
VH: QVQLQQWGAGLLKPSETLSLTCAVYGGSFSGYYWSWIRQPPGKGLEWIGEINHSGSTNYNPSLKSRVTISVETSKNQFSLKLSSVTAADTAVYYCARDKWTWYFDLWGRGTLVTVSS
VL: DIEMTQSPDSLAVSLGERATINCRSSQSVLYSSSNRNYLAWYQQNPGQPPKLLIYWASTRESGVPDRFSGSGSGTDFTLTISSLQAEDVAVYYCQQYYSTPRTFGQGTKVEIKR
modifications: MC-GGFG-eribulin (compound III-1) conjugated to cysteine sulfhydryls freed by TCEP reduction of the antibody's disulfide bonds; positions not given; average DAR 4.0-4.2 per antibody
notes: also called patritumab-eribulin conjugate with DAR of 4.0-4.2
Take B5: the EC50 in assay [1] came to 1.28 nM; in assay [2], 2.78 nM; in assay [3], 0.932 nM; in assay [4], 1.67 nM; in assay [5], 1.49 nM; in assay [7], 1.04 nM. Also, the “Endocytosis EC50 (nM), BT474 cells” value in assay [6] worked out at 0.962 nM. The “Endocytosis EC50 (nM), MCF-7 cells” value in assay [6] came to 0.797 nM. Besides, the “Endocytosis EC50 (nM), NCI-N87 cells” value in assay [6] came to 4.72 nM.

These data come from US20250018052A1 (CHIA TAI TIANQING PHARMACEUTICAL GROUP, published 2025).
